Reference: patent US20220356255A1 (CENTESSA PHARMACEUTICALS UK, published 2022)
Changes are numbered by the printed parent chain.

B1: Fab 8B06 (Fab, V domains shown)
VH: QVQLVQSGGGVVQPGRSLRLSCAASGFTFSSYGMYWVRQAPGKGLEWVAVISYDGSNKYYADSVKGRFTISRDNSKNTLNLQMNSLRAEDTAVYYCAKGALTHWGVVIGDGMDVWGQGTTVTVSS
VL: NFMLTQPHSVSESPGKTVTISCRETELSRRLHYVRWYQQRPGSSPTTVIYEDDQRPSGVPDRFSGSIDSSSNSASLTISGLKTEDEADYYCQSFDSTNPWVFGGGTKLTVL
notes: Purified Fab prepared from IgG with the Pierce kit; also called 8B06 Fab
B2: Fab 8D04 (Fab, V domains shown)
VH: B1 VH
VL: B1 VL with E24G, E26G, L27S, R29F, R30H, L31H, H32K
notes: Purified Fab prepared from IgG with the Pierce kit; also called 8D04 Fab
B3: Fab 8A04 (Fab, V domains shown)
VH: B1 VH
VL: B1 VL with R23M, E24R, E26G, L27T, S28G, R29N, R30K, L31G, V34T
notes: Purified Fab prepared from IgG with the Pierce kit; also called 8A04 Fab
B4: Fab 8G08 (Fab, V domains shown)
VH: B1 VH
VL: B1 VL with R23I, E24S, T25N, E26D, L27V, S28P, R29A, R30S, L31G, V34H
notes: Purified Fab prepared from IgG with the Pierce kit; also called 8G08 Fab
B5: 8B06 mAb (antibody, V domains shown)
VH: B1 VH
VL: B1 VL
notes: Formatted into an IgG1; also called 8B06 IgG1
B6: 8G08 mAb (antibody, V domains shown)
VH: B1 VH
VL: B1 VL with R23I, E24S, T25N, E26D, L27V, S28P, R29A, R30S, L31G, V34H
notes: Formatted into an IgG1; also called 8G08 IgG1
B7: 8D04 mAb (antibody, V domains shown)
VH: B1 VH
VL: B1 VL with E24G, E26G, L27S, R29F, R30H, L31H, H32K
notes: Formatted into an IgG1; also called 8D04 IgG1
B8: 8A04 mAb (antibody, V domains shown)
VH: B1 VH
VL: B1 VL with R23M, E24R, E26G, L27T, S28G, R29N, R30K, L31G, V34T
notes: Formatted into an IgG1; also called 8A04 IgG1
B9: 8D06 mAb (antibody, V domains shown)
VH: B1 VH
VL: B1 VL with R23V, E24L, T25S, E26P, L27R, S28T, R29H, R30A, L31G, V34Y
notes: Formatted into an IgG1; also called 8D06 IgG1

biological target: T1, human PD-L1-Fc protein (human, UniProt Q9NZQ7 19-239); test: BIAcore off rate, unpurified periplasmic extract Fab on PD-L1
T1 construct: Bought from R&D Systems; also called immobilised PD-L1-Fc; not shown: Fc part of the bought fusion protein, not described
T1 sequence (Q9NZQ7 19-239 limits assumed): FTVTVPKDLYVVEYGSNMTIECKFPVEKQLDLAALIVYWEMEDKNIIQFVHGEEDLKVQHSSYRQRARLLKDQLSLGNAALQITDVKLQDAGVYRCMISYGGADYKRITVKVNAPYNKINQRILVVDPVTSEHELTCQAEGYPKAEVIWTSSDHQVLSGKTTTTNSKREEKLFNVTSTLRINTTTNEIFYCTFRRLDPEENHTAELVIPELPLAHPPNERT

Row | Binder | Ratio pH 6 vs 7.4
1 | B1 | 13
2 | B2 | 10
3 | B3 | 9
4 | B4 | 27

biological target: T2, biotinylated human PD-L1 (human, UniProt Q9NZQ7 19-239, limits assumed, biotinylated (sites not given)); test: competition ELISA, Fab with biotinylated PD-L1 on coated PD-1-Fc, pH 6
T2 construct: Bought from R&D Systems; also called biotinylated-PD-L1; human PD-L1 biotin
T2 sequence (Q9NZQ7 19-239 limits assumed): as above

Row | Binder | fold less (IC50) than the control Fab 2.7A04OPT at pH 6
5 | B1 | ~3 fold
6 | B3 | ~3 fold
7 | B4 | ~3 fold

biological target: T3, human PD-L1 on cells (human, UniProt Q9NZQ7 19-290); test: flow cytometry on MDA-MB-231 cells, pH 7.4
T3 construct: Endogenous on MDA-MB-231 cells or transfected into HEK293FF cells (Sino Biological plasmid); the assay field says which; also called native PD-L1 on MDA-MB-231 cells; PD-L1 expressing MDA-MB-231 cells
T3 sequence (Q9NZQ7 19-290 limits assumed): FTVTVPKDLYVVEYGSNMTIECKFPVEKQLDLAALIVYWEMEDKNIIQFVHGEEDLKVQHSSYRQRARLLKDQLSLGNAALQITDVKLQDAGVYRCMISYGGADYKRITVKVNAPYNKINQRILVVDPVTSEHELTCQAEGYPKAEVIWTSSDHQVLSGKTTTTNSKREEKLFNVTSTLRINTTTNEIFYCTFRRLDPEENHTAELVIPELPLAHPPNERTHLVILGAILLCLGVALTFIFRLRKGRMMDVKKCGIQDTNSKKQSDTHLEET

Row | Binder | EC50
8 | B5 | 0.12 nM
9 | B6 | 0.09 nM
10 | B7 | 0.1 nM
11 | B8 | 0.09 nM
12 | B9 | 0.08 nM

biological target: T1, human PD-L1-Fc protein; test: ELISA, Fab on coated human PD-L1-Fc, pH 6

Row | Binder | EC50
13 | B1 | 0.31 nM
14 | B2 | 2.63 nM
15 | B3 | 0.54 nM
16 | B4 | 0.1 nM

biological target: T2, biotinylated human PD-L1; test: competition ELISA, Fab with biotinylated PD-L1 on coated PD-1-Fc; ratio of IC50 values

Row | Binder | Ratio pH 6:7.4
17 | B1 | > 6.37
18 | B2 | > 2.36
19 | B3 | 6.66
20 | B4 | > 8.26

biological target: T3, human PD-L1 on cells; test: flow cytometry on MDA-MB-231 cells, Krebs-lactate buffer, pH 6 versus pH 7.4
Protocol: In order to mimic an acidic tumor environment milieu with tumor cells expressing PD-L1 (The metabolism of tumors in the body, Warburg et al. J Gen Physiol. 1927; 8:519-30) the following buffers were utilised: Krebs ringer bicarbonate buffer (KRB, Amsbio catalog number KRB-1000) with 1 mM lactic acid (Sigma catalog number 252476-50DG) for pH 7.4; KRB plus 15 mM lactic acid for pH 6.5 and KRB plus 20 mM lactic acid for pH 6.0). 3 fold dilutions (100 nM to 0.0005 nM; 0) of the Fabs or IgG were prepared in the respective pH buffers and incubated with 0.60E05 MDA-MB-231 cells for 60 minutes at 4° C. The cells were then washed 3× with the respective pH buffers, at 300 g for 3 min. The cells were then incubated with 50 μl of anti-human IgG (Fab specific)-FITC (Sigma, catalog number F5512-1ML) at 1:100 dilution in the respective pH buffers. Binding of the IgG or Fab to PD-L1 expressing cells was measured by FACS (Attune Nxt) and a total of 10.000 cells were acquired per sample.
(§1) Anti-PD-L1 affinity matured Fabs were tested for their ability to bind to native PD-L1 in a cell line, (MDA-MB-231 cells) in a buffer resembling the tumor microenvironment (Krebs-lactate).

Row | Binder | pH binding preference (fold)
21 | B1 | > 100 fold
22 | B2 | > 100 fold
23 | B3 | > 100 fold

biological target: T3, human PD-L1 on cells; test: flow cytometry on MDA-MB-231 cells, Krebs buffer, pH 6
Protocol: as §1

Row | Binder | EC50
24 | B1 | 2 nM
25 | B2 | 13.5 nM
26 | B3 | 2.16 nM
27 | B4 | 1.58 nM

biological target: T3, human PD-L1 on cells; test: flow cytometry on MDA-MB-231 cells, pH 6

Row | Binder | EC50
28 | B5 | 0.14 nM
29 | B6 | 0.08 nM
30 | B7 | 0.11 nM
31 | B8 | 0.09 nM
32 | B9 | 0.11 nM

biological target: T1, human PD-L1-Fc protein; test: BIAcore off rate, unpurified periplasmic extract Fab on PD-L1, pH 6

Row | Binder | koff
33 | B1 | 0.00135 s⁻¹
34 | B2 | 0.00283 s⁻¹
35 | B3 | 0.00131 s⁻¹
36 | B4 | 0.000823 s⁻¹

biological target: T2, biotinylated human PD-L1; test: competition ELISA, Fab with biotinylated PD-L1 on coated PD-1-Fc, pH 6; remark: another data set of the same source

Row | Binder | IC50
37 | B1 | 15.7 nM
38 | B2 | 42.3 nM
39 | B3 | 12.2 nM
40 | B4 | 12.1 nM

biological target: T2, biotinylated human PD-L1; test: competition ELISA, Fab with biotinylated PD-L1 on coated PD-1-Fc, pH 6.5

Row | Binder | IC50
41 | B1 | 52.7 nM
42 | B2 | > 100 nM
43 | B3 | 29.4 nM
44 | B4 | 41.6 nM

biological target: T1, human PD-L1-Fc protein; test: ELISA, purified Fab on coated human PD-L1-Fc, pH 6 (FIG. 4)

Row | Binder | concentration at saturation of binding
45 | B1 | 4 nM
46 | B2 | 4 nM
47 | B3 | 4 nM
48 | B4 | 4 nM

biological target: T2, biotinylated human PD-L1; test: competition ELISA, Fab with biotinylated PD-L1 on coated PD-1-Fc, pH 7.4

Row | Binder | IC50
49 | B1 | > 100 nM
50 | B2 | > 100 nM
51 | B3 | 81.2 nM
52 | B4 | > 100 nM

biological target: T1, human PD-L1-Fc protein; test: ELISA, Fab on coated human PD-L1-Fc, pH 7.4

Row | Binder | EC50
53 | B1 | > 100 nM
54 | B2 | > 100 nM
55 | B3 | > 10 nM
56 | B4 | > 100 nM

biological target: T1, human PD-L1-Fc protein; test: ELISA, Fab on coated human PD-L1-Fc; ratio from extrapolating an OD of 0.3 at pH 6 versus pH 7.4

Row | Binder | Ratio pH 6:7.4
57 | B1 | 38
58 | B2 | 9
59 | B3 | 11
60 | B4 | 53

biological target: T1, human PD-L1-Fc protein; test: BIAcore off rate, unpurified periplasmic extract Fab on PD-L1, pH 7.4

Row | Binder | koff
61 | B1 | 0.0105 s⁻¹
62 | B2 | 0.0275 s⁻¹
63 | B3 | 0.015 s⁻¹
64 | B4 | 0.00308 s⁻¹

biological target: T3, human PD-L1 on cells; test: flow cytometry on MDA-MB-231 cells, pH 6.5

Row | Binder | EC50
65 | B5 | 0.17 nM
66 | B6 | 0.07 nM
67 | B7 | 0.13 nM
68 | B8 | 0.11 nM
69 | B9 | 0.11 nM

biological target: T3, human PD-L1 on cells; test: flow cytometry on MDA-MB-231 cells, Krebs buffer, pH 7.4
Protocol: as §1

Row | Binder | EC50
70 | B1 | > 100 nM
71 | B2 | > 100 nM
72 | B3 | > 100 nM
73 | B4 | 13.2 nM

biological target: T3, human PD-L1 on cells; test: flow cytometry on MDA-MB-231 cells, Krebs buffer; ratio of EC50 values
Protocol: as §1

Row | Binder | Ratio pH 6:7.4
74 | B1 | > 50
75 | B2 | > 7.41
76 | B3 | > 46.3
77 | B4 | 8.35

biological target: T2, biotinylated human PD-L1; test: competition ELISA, Fab with biotinylated PD-L1 on coated PD-1-Fc

Row | Binder | fold less inhibitory activity at pH 6.5 than at pH 6 | fold less potent than Fabs 8D06, 8A04, 8G08 and 8B06
78 | B1 | ~3 fold | –
79 | B2 | – | ~3 fold
80 | B3 | ~3 fold | –
81 | B4 | ~3 fold | –

biological target: T3, human PD-L1 on cells; test: flow cytometry on MDA-MB-231 cells, Krebs buffer, pH 6.5
Protocol: as §1

Row | Binder | EC50
82 | B1 | 6.4 nM
83 | B2 | 56.4 nM
84 | B3 | 6.62 nM
85 | B4 | 2.95 nM
